Data: PMC10580383, “Development of Melanocortin 4 Receptor Agonists by Exploiting Animal-Derived Macrocyclic, Disulfide-Rich Peptide Scaffolds” (ACS Pharmacology & Translational Science, 2023)
Blank lines part the entries; values can stand above or below the binder they belong to. Bridges are numbered along the chain shown (N, C = ends). Where no end group is shown, it is not given here. [ ]: non-standard residue; d: D form.

Experiments:
[1] = target: human melanocortin 4 receptor with LgBit fused at the C-terminus (human) (UniProt P32245)
[2] = target: mouse melanocortin 4 receptor fused to EGFP (mouse) (UniProt P56450)
[3] = target: human melanocortin 4 receptor with C-terminally fused SmBit (human) (UniProt P32245)
[4] = target: mouse melanocortin 4 receptor fused to EGFP (mouse) (UniProt P56450); remark: listed apart in the source

Sequence of mouse melanocortin 4 receptor fused to EGFP (mouse) (P56450 whole entry, the tested form may be a part): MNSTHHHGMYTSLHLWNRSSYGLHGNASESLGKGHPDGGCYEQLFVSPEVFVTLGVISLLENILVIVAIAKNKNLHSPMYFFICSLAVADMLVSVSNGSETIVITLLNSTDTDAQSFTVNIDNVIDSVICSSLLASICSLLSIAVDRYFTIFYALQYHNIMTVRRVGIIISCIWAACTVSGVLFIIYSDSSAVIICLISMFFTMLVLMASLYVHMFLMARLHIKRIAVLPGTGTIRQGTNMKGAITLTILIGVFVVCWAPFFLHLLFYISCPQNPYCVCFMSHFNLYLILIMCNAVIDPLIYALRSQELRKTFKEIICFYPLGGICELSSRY
Sequence of human melanocortin 4 receptor with LgBit fused at the C-terminus (human) (P32245 whole entry, the tested form may be a part): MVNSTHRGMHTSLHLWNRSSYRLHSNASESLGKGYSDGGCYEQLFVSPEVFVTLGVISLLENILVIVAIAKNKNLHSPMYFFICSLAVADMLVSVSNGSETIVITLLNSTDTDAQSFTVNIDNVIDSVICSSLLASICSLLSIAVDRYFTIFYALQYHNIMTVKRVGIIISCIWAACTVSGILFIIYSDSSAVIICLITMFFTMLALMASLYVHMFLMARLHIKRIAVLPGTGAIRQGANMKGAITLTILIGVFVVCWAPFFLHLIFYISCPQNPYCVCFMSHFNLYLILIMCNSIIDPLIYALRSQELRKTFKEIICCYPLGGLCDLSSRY
Sequence of human melanocortin 4 receptor with C-terminally fused SmBit (human) (P32245 whole entry, the tested form may be a part): as above

coupling of Gαs-SmBit to MC4R-LgBit (nanoluciferase complementation, live cells): EC50 [1]: 0.193 nM
coupling of Gαs-SmBit to MC4R-LgBit (nanoluciferase complementation, live cells): efficacy above that of α-MSH (% more efficacious than α-MSH) [1]: 8.8
cAMP accumulation (Cisbio HTRF) in HEK293 cells transiently expressing mouse MC4R-EGFP: EC50 [2]: 3.7 nM
cAMP accumulation (Cisbio HTRF) in HEK293 cells transiently expressing mouse MC4R-EGFP: Emax (normalised to NDP-α-MSH) [2]: 96%
recruitment of β-arrestin-2-LgBit to MC4R-SmBit (nanoluciferase complementation, live cells): EC50 [3]: 23.5 nM
recruitment of β-arrestin-2-LgBit to MC4R-SmBit (nanoluciferase complementation, live cells): increase in efficacy (Emax) over α-MSH (% increase in efficacy compared to α-MSH) [3]: 99
recruitment of β-arrestin-2-nanoluciferase to MC4R-EGFP (kinetic BRET, HEK293 cells), 10 μM peptide: BRET efficiency relative to NDP-α-MSH (100) [4]: > 130%
B1: protegrin-4-like peptide 1 (peptide)
peptide: RGGRLCYCPH[dF]HWCFCVGR-NH2
modifications: disulfide 8-14, 6-16; N-terminus assumed
SMILES: CC(C)C[C@H](NC(=O)[C@H](CCCNC(=N)N)NC(=O)CNC(=O)CNC(=O)[C@@H](N)CCCNC(=N)N)C(=O)N[C@H]1CSSC[C@@H](C(=O)N[C@H](C(=O)NCC(=O)N[C@@H](CCCNC(=N)N)C(N)=O)C(C)C)NC(=O)[C@H](Cc2ccccc2)NC(=O)[C@@H]2CSSC[C@H](NC(=O)[C@H](Cc3ccc(O)cc3)NC1=O)C(=O)N1CCC[C@H]1C(=O)N[C@@H](Cc1c[nH]cn1)C(=O)N[C@H](Cc1ccccc1)C(=O)N[C@@H](Cc1c[nH]cn1)C(=O)N[C@@H](Cc1c[nH]c3ccccc13)C(=O)N2

coupling of Gαs-SmBit to MC4R-LgBit (nanoluciferase complementation, live cells): EC50 [1]: 0.702 nM
coupling of Gαs-SmBit to MC4R-LgBit (nanoluciferase complementation, live cells): efficacy above that of α-MSH (% more efficacious than α-MSH) [1]: 25
cAMP accumulation (Cisbio HTRF) in HEK293 cells transiently expressing mouse MC4R-EGFP: EC50 [2]: 1 nM
cAMP accumulation (Cisbio HTRF) in HEK293 cells transiently expressing mouse MC4R-EGFP: Emax (normalised to NDP-α-MSH) [2]: 98%
recruitment of β-arrestin-2-LgBit to MC4R-SmBit (nanoluciferase complementation, live cells): EC50 [3]: 25.2 nM
recruitment of β-arrestin-2-LgBit to MC4R-SmBit (nanoluciferase complementation, live cells): increase in efficacy (Emax) over α-MSH (% increase in efficacy compared to α-MSH) [3]: 82
recruitment of β-arrestin-2-nanoluciferase to MC4R-EGFP (kinetic BRET, HEK293 cells), 10 μM peptide: BRET efficiency relative to NDP-α-MSH (100) [4]: > 130%
B2: arenicin-3-like peptide 1 (peptide)
peptide: GFCWYVCPH[dF]HWCYRRCN-NH2
modifications: disulfide 7-13, 3-17; N-terminus assumed
SMILES: CC(C)[C@@H]1NC(=O)[C@H](Cc2ccc(O)cc2)NC(=O)[C@H](Cc2c[nH]c3ccccc23)NC(=O)[C@@H](NC(=O)[C@H](Cc2ccccc2)NC(=O)CN)CSSC[C@@H](C(=O)N[C@@H](CC(N)=O)C(N)=O)NC(=O)[C@H](CCCNC(=N)N)NC(=O)[C@H](CCCNC(=N)N)NC(=O)[C@H](Cc2ccc(O)cc2)NC(=O)[C@@H]2CSSC[C@H](NC1=O)C(=O)N1CCC[C@H]1C(=O)N[C@@H](Cc1c[nH]cn1)C(=O)N[C@H](Cc1ccccc1)C(=O)N[C@@H](Cc1c[nH]cn1)C(=O)N[C@@H](Cc1c[nH]c3ccccc13)C(=O)N2
